The text below walks through data of the supplement of paper PMC9112550, “Optimization of the antimicrobial peptide Bac7 by deep mutational scanning” (BMC Biology, 2022).

The data set relates to Escherichia coli TOP10. The experiment in a line: shrunken log2 fold change of peptide-encoding DNA abundance (4.5 h post-induction vs induction); higher = less antimicrobial activity (less host growth inhibition). The following applies: time post-induction: 4.5 h; library: site-saturation at positions 5, 18, 19, 20.
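Also: peptides expressed intracellularly from a pBAD plasmid library in pooled LB shake-flask culture, induced with 0.3% L-arabinose, DNA abundance read by NGS, three biological replicates, DESeq2 with apeglm shrinkage.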

Consider RRIRIRPPRLPRPRPRPPLKPRP, for which the “shrunken log2 fold change” value is -0.105.
Regarding RRIRQRPPRLPRPRPRPDSMPRP, the “shrunken log2 fold change” value was -0.17.
Under RRIRVRPPRLPRPRPRPGDLPRP stands -0.211; under RRIRNRPPRLPRPRPRPCNEPRP, -0.0138; under RRIRFRPPRLPRPRPRPAWCPRP, 0.205.
With RRIRSRPPRLPRPRPRPVRNPRP, the “shrunken log2 fold change” value was 0.0299.
Under RRIRYRPPRLPRPRPRPLSYPRP stands -0.273; under RRIRMRPPRLPRPRPRPMRDPRP, 1.3.
Under RRIRKRPPRLPRPRPRPGMPPRP stands 0.625; under RRIRLRPPRLPRPRPRPERVPRP, 0.0357; under RRIRGRPPRLPRPRPRPTCLPRP, 0.576.
In the case of RRIRARPPRLPRPRPRPLGRPRP, the “shrunken log2 fold change” value turned out to be 0.321.
Consider RRIRMRPPRLPRPRPRPPERPRP, for which the “shrunken log2 fold change” value turned out to be 1.98.
With RRIRCRPPRLPRPRPRPKLIPRP, the “shrunken log2 fold change” value was -0.0459.
Under RRIRHRPPRLPRPRPRPPRGPRP stands 0.564; under RRIRLRPPRLPRPRPRPKGEPRP, 0.149.
With RRIRARPPRLPRPRPRPTFIPRP, the “shrunken log2 fold change” value is -0.18.
Regarding RRIRLRPPRLPRPRPRPAHLPRP, the “shrunken log2 fold change” value was 0.343.
RRIRWRPPRLPRPRPRPKDWPRP: the “shrunken log2 fold change” value came out at 0.246.
As for RRIRLRPPRLPRPRPRPMCKPRP, the figure is 0.0258; as for RRIRHRPPRLPRPRPRPWNWPRP, -0.0135.
With RRIRCRPPRLPRPRPRPVMFPRP, the “shrunken log2 fold change” value was -0.154.
Turning to RRIRERPPRLPRPRPRPHTGPRP, the “shrunken log2 fold change” value was -1.1.
In the case of RRIRPRPPRLPRPRPRPGHSPRP, the “shrunken log2 fold change” value is -0.0921.
Under RRIRRRPPRLPRPRPRPAMMPRP stands 0.163; under RRIRTRPPRLPRPRPRPRSPPRP, 0.0437.
RRIRHRPPRLPRPRPRPWQVPRP: the “shrunken log2 fold change” value was -0.0402.
Turning to RRIRMRPPRLPRPRPRPMQKPRP, the “shrunken log2 fold change” value amounted to 0.0563.
For RRIRWRPPRLPRPRPRPMYYPRP, the “shrunken log2 fold change” value is -0.32.
Under RRIRYRPPRLPRPRPRPYVWPRP stands -0.389; under RRIRMRPPRLPRPRPRPWITPRP, -0.00122; under RRIRYRPPRLPRPRPRPGKSPRP, 0.0131.
With RRIRPRPPRLPRPRPRPKRGPRP, the “shrunken log2 fold change” value is 0.484.
As for RRIRERPPRLPRPRPRPWIKPRP, the figure is -0.924.
Take RRIRMRPPRLPRPRPRPEHRPRP: the “shrunken log2 fold change” value is 0.0887.
As to RRIRNRPPRLPRPRPRPQVMPRP, the “shrunken log2 fold change” value came out at 0.06.
Take RRIRIRPPRLPRPRPRPLGLPRP: the “shrunken log2 fold change” value is -0.177.
Consider RRIRGRPPRLPRPRPRPQPCPRP, for which the “shrunken log2 fold change” value stood at 0.466.
On to RRIRTRPPRLPRPRPRPVEQPRP, for which the “shrunken log2 fold change” value amounted to 0.112.
Turning to RRIRNRPPRLPRPRPRPNWGPRP, the “shrunken log2 fold change” value was -0.0231.
In the case of RRIRSRPPRLPRPRPRPQFAPRP, the “shrunken log2 fold change” value was found to be 0.105.
In the case of RRIRNRPPRLPRPRPRPKWLPRP, the “shrunken log2 fold change” value was -0.00522.
With RRIRARPPRLPRPRPRPCGQPRP, the “shrunken log2 fold change” value was 0.25.
Under RRIRARPPRLPRPRPRPSQKPRP stands 0.106; under RRIRDRPPRLPRPRPRPVYAPRP, -0.025; under RRIRVRPPRLPRPRPRPMHKPRP, -0.192.
As for RRIRDRPPRLPRPRPRPEVHPRP, the figure is 0.168.
Turning to RRIRVRPPRLPRPRPRPVLIPRP, the “shrunken log2 fold change” value was -0.186.
Take RRIRMRPPRLPRPRPRPGVHPRP: the “shrunken log2 fold change” value amounted to 0.0493.
On to RRIRHRPPRLPRPRPRPYSPPRP, for which the “shrunken log2 fold change” value was -0.0769.
As to RRIRQRPPRLPRPRPRPQYFPRP, the “shrunken log2 fold change” value was -0.00133.
Regarding RRIRYRPPRLPRPRPRPSYFPRP, the “shrunken log2 fold change” value is -0.684.
Consider RRIRGRPPRLPRPRPRPLHTPRP, for which the “shrunken log2 fold change” value was found to be 0.851.
For the sequence RRIRYRPPRLPRPRPRPSEEPRP, the “shrunken log2 fold change” value was -0.111.
Turning to RRIRERPPRLPRPRPRPPEVPRP, the “shrunken log2 fold change” value was 0.452.
On to RRIRVRPPRLPRPRPRPCLSPRP, for which the “shrunken log2 fold change” value is -0.153.
For the sequence RRIRERPPRLPRPRPRPGELPRP, the “shrunken log2 fold change” value is -0.26.
Under RRIRRRPPRLPRPRPRPWWVPRP stands 0.0496; under RRIRYRPPRLPRPRPRPMLQPRP, -0.229; under RRIRHRPPRLPRPRPRPRNCPRP, -0.112.
For the sequence RRIRSRPPRLPRPRPRPIHPPRP, the “shrunken log2 fold change” value was -0.0819.
Consider RRIRPRPPRLPRPRPRPWHCPRP, for which the “shrunken log2 fold change” value was -0.0956.
As for RRIRSRPPRLPRPRPRPTSKPRP, the figure is 0.0753; as for RRIRVRPPRLPRPRPRPDHEPRP, -0.0524; as for RRIRSRPPRLPRPRPRPYPSPRP, -0.203.
As for RRIRCRPPRLPRPRPRPWEKPRP, the “shrunken log2 fold change” value is 0.0651.
As for RRIRVRPPRLPRPRPRPVMCPRP, the figure is -0.0631; as for RRIRERPPRLPRPRPRPSRPPRP, 0.168; as for RRIRGRPPRLPRPRPRPPSDPRP, 1.05.
As to RRIRMRPPRLPRPRPRPNHYPRP, the “shrunken log2 fold change” value is -0.352.
With RRIRVRPPRLPRPRPRPVDQPRP, the “shrunken log2 fold change” value was -0.0903.
As to RRIRRRPPRLPRPRPRPVRPPRP, the “shrunken log2 fold change” value came to 0.512.
As for RRIRVRPPRLPRPRPRPLPKPRP, the figure is 0.361.
Take RRIRGRPPRLPRPRPRPTYFPRP: the “shrunken log2 fold change” value was determined as 0.0176.
Under RRIRLRPPRLPRPRPRPRPEPRP stands 0.799; under RRIRARPPRLPRPRPRPCVEPRP, 0.317; under RRIRSRPPRLPRPRPRPFWKPRP, -0.125.
As for RRIRPRPPRLPRPRPRPNKGPRP, the figure is -0.266; as for RRIRPRPPRLPRPRPRPWFIPRP, -0.298.
For the sequence RRIRIRPPRLPRPRPRPLCFPRP, the “shrunken log2 fold change” value was -0.485.
On to RRIRCRPPRLPRPRPRPSTWPRP, for which the “shrunken log2 fold change” value is -0.0554.
Consider RRIRRRPPRLPRPRPRPWPGPRP, for which the “shrunken log2 fold change” value came out at 0.287.
As for RRIRNRPPRLPRPRPRPKTVPRP, the “shrunken log2 fold change” value came to 0.0807.
RRIRQRPPRLPRPRPRPYSPPRP: the “shrunken log2 fold change” value is -0.13.
For the sequence RRIRCRPPRLPRPRPRPFHEPRP, the “shrunken log2 fold change” value is -0.917.
For the sequence RRIRHRPPRLPRPRPRPGRCPRP, the “shrunken log2 fold change” value turned out to be 0.127.
Under RRIRDRPPRLPRPRPRPAMAPRP stands 0.575.
Under RRIRPRPPRLPRPRPRPCHTPRP stands -0.498; under RRIRARPPRLPRPRPRPWWDPRP, -0.101; under RRIRSRPPRLPRPRPRPGNIPRP, -0.281.
RRIRRRPPRLPRPRPRPYQRPRP: the “shrunken log2 fold change” value was -0.0429.
